{"source": "patent US11932673", "about": "(IONTAS, dated 2024)", "assay_in_all_cases": "cell-based or functional assay", "key": {"human Kv 1.3 [1]": {"biological_target": "T1, human Kv 1.3 (human, UniProt P22001 1-575)", "T1 sequence (P22001 whole entry)": "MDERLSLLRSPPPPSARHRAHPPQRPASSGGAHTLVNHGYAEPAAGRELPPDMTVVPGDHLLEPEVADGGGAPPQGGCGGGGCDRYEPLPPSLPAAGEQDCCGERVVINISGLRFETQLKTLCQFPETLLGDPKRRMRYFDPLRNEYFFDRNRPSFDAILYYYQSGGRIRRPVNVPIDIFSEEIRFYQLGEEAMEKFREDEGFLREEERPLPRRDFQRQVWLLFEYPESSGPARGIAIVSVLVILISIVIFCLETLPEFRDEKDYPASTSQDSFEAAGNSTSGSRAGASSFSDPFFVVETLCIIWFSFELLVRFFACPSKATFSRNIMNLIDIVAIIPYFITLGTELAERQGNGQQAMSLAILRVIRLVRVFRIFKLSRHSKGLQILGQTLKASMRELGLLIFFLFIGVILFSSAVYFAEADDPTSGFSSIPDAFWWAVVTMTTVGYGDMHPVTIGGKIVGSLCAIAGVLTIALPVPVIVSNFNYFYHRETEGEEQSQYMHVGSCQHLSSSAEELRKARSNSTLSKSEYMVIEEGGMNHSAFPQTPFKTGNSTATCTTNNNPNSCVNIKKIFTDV"}, "human Nav1.7 [2]": {"biological_target": "T2, human Nav1.7 (human, UniProt Q15858 1-1988)", "T2 sequence (Q15858 whole entry)": "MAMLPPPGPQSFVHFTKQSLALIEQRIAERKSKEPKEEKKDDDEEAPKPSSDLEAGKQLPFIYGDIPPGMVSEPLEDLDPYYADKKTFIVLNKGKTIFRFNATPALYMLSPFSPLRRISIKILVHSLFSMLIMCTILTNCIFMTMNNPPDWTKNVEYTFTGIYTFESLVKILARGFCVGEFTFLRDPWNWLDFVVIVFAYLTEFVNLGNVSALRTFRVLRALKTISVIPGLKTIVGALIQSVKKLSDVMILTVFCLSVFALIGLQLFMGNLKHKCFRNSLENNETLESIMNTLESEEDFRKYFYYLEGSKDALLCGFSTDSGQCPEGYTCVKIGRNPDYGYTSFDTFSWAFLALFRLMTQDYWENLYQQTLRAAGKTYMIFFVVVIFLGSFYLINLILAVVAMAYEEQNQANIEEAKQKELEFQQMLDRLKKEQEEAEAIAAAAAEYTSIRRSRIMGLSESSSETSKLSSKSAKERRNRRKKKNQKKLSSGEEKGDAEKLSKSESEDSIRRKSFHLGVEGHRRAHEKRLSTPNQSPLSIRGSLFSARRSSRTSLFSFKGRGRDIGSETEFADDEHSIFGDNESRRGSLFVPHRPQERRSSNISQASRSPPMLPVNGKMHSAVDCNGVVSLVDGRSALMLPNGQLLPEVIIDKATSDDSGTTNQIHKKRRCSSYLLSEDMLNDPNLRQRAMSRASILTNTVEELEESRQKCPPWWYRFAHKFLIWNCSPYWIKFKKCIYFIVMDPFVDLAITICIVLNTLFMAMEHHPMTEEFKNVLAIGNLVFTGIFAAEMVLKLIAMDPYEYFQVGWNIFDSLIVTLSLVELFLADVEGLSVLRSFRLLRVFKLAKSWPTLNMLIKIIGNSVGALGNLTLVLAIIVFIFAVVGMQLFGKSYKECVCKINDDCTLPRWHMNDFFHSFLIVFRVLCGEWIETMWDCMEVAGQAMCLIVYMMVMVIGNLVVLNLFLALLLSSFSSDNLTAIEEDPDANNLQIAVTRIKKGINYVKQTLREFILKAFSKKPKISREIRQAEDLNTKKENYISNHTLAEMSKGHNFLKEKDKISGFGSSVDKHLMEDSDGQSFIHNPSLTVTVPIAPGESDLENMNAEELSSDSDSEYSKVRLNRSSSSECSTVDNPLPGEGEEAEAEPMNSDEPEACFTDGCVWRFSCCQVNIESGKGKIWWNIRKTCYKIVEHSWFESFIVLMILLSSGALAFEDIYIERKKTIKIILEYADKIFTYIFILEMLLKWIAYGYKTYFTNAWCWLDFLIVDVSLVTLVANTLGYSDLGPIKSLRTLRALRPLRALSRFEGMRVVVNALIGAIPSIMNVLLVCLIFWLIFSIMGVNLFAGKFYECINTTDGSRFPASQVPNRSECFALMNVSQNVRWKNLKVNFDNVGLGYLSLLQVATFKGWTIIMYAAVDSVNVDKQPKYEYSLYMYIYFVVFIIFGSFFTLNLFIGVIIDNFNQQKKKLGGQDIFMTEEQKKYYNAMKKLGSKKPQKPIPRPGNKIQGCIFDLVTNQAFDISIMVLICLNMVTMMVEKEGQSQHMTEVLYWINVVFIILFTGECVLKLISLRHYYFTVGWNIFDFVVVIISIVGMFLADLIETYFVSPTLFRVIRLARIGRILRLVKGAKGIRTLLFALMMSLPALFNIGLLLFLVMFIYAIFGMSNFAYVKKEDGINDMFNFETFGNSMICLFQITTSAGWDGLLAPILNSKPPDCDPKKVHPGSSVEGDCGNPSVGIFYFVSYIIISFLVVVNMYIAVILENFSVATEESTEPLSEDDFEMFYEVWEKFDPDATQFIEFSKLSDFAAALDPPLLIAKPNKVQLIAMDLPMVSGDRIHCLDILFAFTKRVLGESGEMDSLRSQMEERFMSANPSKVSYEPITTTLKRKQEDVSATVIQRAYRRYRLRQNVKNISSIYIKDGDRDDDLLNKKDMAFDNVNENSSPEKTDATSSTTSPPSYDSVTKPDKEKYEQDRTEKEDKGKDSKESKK"}, "human Kv 1.3 [3]": {"biological_target": "T1, human Kv 1.3", "remark": "listed apart in the source"}, "human Nav1.7 [4]": {"biological_target": "T2, human Nav1.7", "remark": "listed apart in the source"}}}
{"binder": "KB_A07 Shk (antibody, V domains shown) VH: EVQLVESGGGLVRPGGSLRLSCAASGFTFSSYAMSWVRQAPGKGLEWVSAISGSGGSTYYADSVKGRFTISRDNTKNSLYLQMTSLRADDTAFYYCVKDFGPGYGTGWFDYWGPGTLVTVSS VL: NWYQQKPGKAPKLLIYAAGVRSCIDTIPKSRCTAFQCKHSMKYRLSFCRKTCGTCSRSGVPSRFSGSGSGTDFTLTISSLQPEDFATYYCQQGASPPYTFGQGTKVEIKR", "values": [{"measurement": "IC50 of inhibition of huKv1.3 currents, QPatch whole-cell patch clamp, CHO cells", "setting": "human Kv 1.3 [1]", "result": 40, "unit": "nM"}]}
{"binder": "KB_A07_ProTx-III 2M Gly (antibody, V domains shown) VH: EVQLVESGGGLVRPGGSLRLSCAASGFTFSSYAMSWVRQAPGKGLEWVSAISGSGGSTYYADSVKGRFTISRDNTKNSLYLQMTSLRADDTAFYYCVKDFGPGYGTGWFDYWGPGTLVTVSS VL: […]", "values": [{"measurement": "IC50 of inhibition of Nav1.7 currents, QPatch, CHO cells", "setting": "human Nav1.7 [2]", "result": 1100, "unit": "nM"}]}
{"binder": "KB_A12_ProTx-III 2M Gly (antibody, V domains shown) VH: EVQLVESGGGLVRPGGSLRLSCAASGFTFSSYAMSWVRQAPGKGLEWVSAISGSGGSTYYADSVKGRFTISRDNTKNSLYLQMTSLRADDTAFYYCVKDFGPGYGTGWFDYWGPGTLVTVSS VL: VNWYQQLPGKAPKLLIYAAGRGCLKFGWKCNPRNDKCCSGLKCGSNHNWCKWHIGANSGVSDRFSAAKSGTSASLAINGLRSEDEADYYCAAWDDSLNGYVFGTGTKLTVLG", "values": [{"measurement": "IC50 of inhibition of Nav1.7 currents, QPatch, CHO cells", "setting": "human Nav1.7 [2]", "result": 1500, "unit": "nM"}]}
{"binder": "KB_A07 MoKa-1 (antibody, V domains shown) VH: EVQLVESGGGLVRPGGSLRLSCAASGFTFSSYAMSWVRQAPGKGLEWVSAISGSGGSTYYADSVKGRFTISRDNTKNSLYLQMTSLRADDTAFYYCVKDFGPGYGTGWFDYWGPGTLVTVSS VL: DIQMTQSPSSLSASVGDRVTITCRASQSISSYLNWYQQKPGKAPKLLIYAAGVINVKCSLPQQCIKPCKDAGMRFGKCMNKKCRCYSSRSGVPSRFSGSGSGTDFTLTISSLQPEDFATYYCQQGASPPYTFGQGTKVEIKR", "values": [{"measurement": "IC50 of inhibition of huKv1.3 currents (extrapolated)", "setting": "human Kv 1.3 [3]", "result": "> 10000", "unit": "nM"}]}
{"binder": "KB_A12 (scFv, V domains shown) VH: EVQLVESGGGLVRPGGSLRLSCAASGFTFSSYAMSWVRQAPGKGLEWVSAISGSGGSTYYADSVKGRFTISRDNTKNSLYLQMTSLRADDTAFYYCVKDFGPGYGTGWFDYWGPGTLVTVSS VL: AVNWYQQLPGKAPKLLIYAAGRCPRILMRCKQDSDCLAGCVCGPNGFCGANSGVSDRFSAAKSGTSASLAINGLRSEDEADYYCAAWDDSLNGYVFGTGTKLTVLG", "values": [{"measurement": "IC50 of inhibition of Nav1.7 currents (extrapolated; IgG isotype control)", "setting": "human Nav1.7 [4]", "result": "> 100000", "unit": "nM"}, {"measurement": "IC50 of inhibition of huKv1.3 currents (extrapolated)", "setting": "human Kv 1.3 [3]", "result": "> 10000", "unit": "nM"}]}
{"binder": "KB_A12 Kaliotoxin (antibody, V domains shown) VH: EVQLVESGGGLVRPGGSLRLSCAASGFTFSSYAMSWVRQAPGKGLEWVSAISGSGGSTYYADSVKGRFTISRDNTKNSLYLQMTSLRADDTAFYYCVKDFGPGYGTGWFDYWGPGTLVTVSS VL: QSVLTQPPSVSEAPRQRVTITCSGSSSNIGNNAVNWYQQLPGKAPKLLIYAAGRGVEINVKCSGSPQCLKPCKDAGMRFGKCMNRKCHCTPKANSGVSDRFSAAKSGTSASLAINGLRSEDEADYYCAAWDDSLNGYVFGTGTKLTVLG", "values": [{"measurement": "IC50 of inhibition of huKv1.3 currents (extrapolated)", "setting": "human Kv 1.3 [3]", "result": "> 10000", "unit": "nM"}]}
{"binder": "KB_A12 MoKa-1 (antibody, V domains shown) VH: EVQLVESGGGLVRPGGSLRLSCAASGFTFSSYAMSWVRQAPGKGLEWVSAISGSGGSTYYADSVKGRFTISRDNTKNSLYLQMTSLRADDTAFYYCVKDFGPGYGTGWFDYWGPGTLVTVSS VL: QSVLTQPPSVSEAPRQRVTITCSGSSSNIGNNAVNWYQQLPGKAPKLLIYAAGRINVKCSLPQQCIKPCKDAGMRFGKCMNKKCRCYSANSGVSDRFSAAKSGTSASLAINGLRSEDEADYYCAAWDDSLNGYVFGTGTKLTVLG", "values": [{"measurement": "IC50 of inhibition of huKv1.3 currents (extrapolated)", "setting": "human Kv 1.3 [3]", "result": "> 10000", "unit": "nM"}]}
{"binder": "KB_A07 (scFv, V domains shown) VH: EVQLVESGGGLVRPGGSLRLSCAASGFTFSSYAMSWVRQAPGKGLEWVSAISGSGGSTYYADSVKGRFTISRDNTKNSLYLQMTSLRADDTAFYYCVKDFGPGYGTGWFDYWGPGTLVTVSS VL: YLNWYQQKPGKAPKLLIYAAGVCPRILMRCKQDSDCLAGCVCGPNGFCGSRSGVPSRFSGSGSGTDFTLTISSLQPEDFATYYCQQGASPPYTFGQGTKVEIKR", "values": [{"measurement": "IC50 of inhibition of huKv1.3 currents (extrapolated)", "setting": "human Kv 1.3 [3]", "result": "> 10000", "unit": "nM"}]}
{"binder": "KB_A07 Kaliotoxin (antibody, V domains shown) VH: EVQLVESGGGLVRPGGSLRLSCAASGFTFSSYAMSWVRQAPGKGLEWVSAISGSGGSTYYADSVKGRFTISRDNTKNSLYLQMTSLRADDTAFYYCVKDFGPGYGTGWFDYWGPGTLVTVSS VL: DIQMTQSPSSLSASVGDRVTITCRASQSISSYLNWYQQKPGKAPKLLIYAAGVGVEINVKCSGSPQCLKPCKDAGMRFGKCMNRKCHCTPKSRSGVPSRFSGSGSGTDFTLTISSLQPEDFATYYCQQGASPPYTFGQGTKVEIKR", "values": [{"measurement": "IC50 of inhibition of huKv1.3 currents, QPatch whole-cell patch clamp, CHO cells", "setting": "human Kv 1.3 [1]", "result": 900, "unit": "nM"}]}
{"binder": "KB_A12 Shk (antibody, V domains shown) VH: EVQLVESGGGLVRPGGSLRLSCAASGFTFSSYAMSWVRQAPGKGLEWVSAISGSGGSTYYADSVKGRFTISRDNTKNSLYLQMTSLRADDTAFYYCVKDFGPGYGTGWFDYWGPGTLVTVSS VL: NWYQQLPGKAPKLLIYAAGRRSCIDTIPKSRCTAFQCKHSMKYRLSFCRKTCGTCANSGVSDRFSAAKSGTSASLAINGLRSEDEADYYCAAWDDSLNGYVFGTGTKLTVLG", "values": [{"measurement": "IC50 of inhibition of huKv1.3 currents, QPatch whole-cell patch clamp, CHO cells", "setting": "human Kv 1.3 [1]", "result": 20, "unit": "nM"}]}
{"binder": "KB_A12_ProTx-III 2M 2Gly (antibody, V domains shown) VH: EVQLVESGGGLVRPGGSLRLSCAASGFTFSSYAMSWVRQAPGKGLEWVSAISGSGGSTYYADSVKGRFTISRDNTKNSLYLQMTSLRADDTAFYYCVKDFGPGYGTGWFDYWGPGTLVTVSS VL: VNWYQQLPGKAPKLLIYAAGRGCLKFGWKCNPRNDKCCSGLKCGSNHNWCKWHIGGANSGVSDRFSAAKSGTSASLAINGLRSEDEADYYCAAWDDSLNGYVFGTGTKLTVLG", "values": [{"measurement": "IC50 of inhibition of Nav1.7 currents, QPatch, CHO cells", "setting": "human Nav1.7 [2]", "result": 1400, "unit": "nM"}]}
